B1: MMP1 (parent)
chain: YTPDLPRADVDHAIEKAFQLWSNV
B2: HDAC6 (parent)
chain: YVHHQALLDVKNIAHQNKFGEDMP

Variants of: B1
Assay: protein stability index of a GFP-peptide fusion (GPS, HEK-293T) (PSI 1-6); higher = more stable
Settings: c terminus: a fixed tail appended
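Note: lentivirally expressed fusions sorted by FACS into six bins by GFP to DsRed ratio, PSI derived from sequencing read proportions per bin multiplied by bin number.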

Protein stability index of substitutions, site by site:
R7: N 1.64; E 1.94; Y 1.08; L 1.42; Q 1.92; F 2.09; S 1.75; T 1.88; P 1.81; M 2.25; W 1.79; D 1.79; C 2.01; V 2.12; K 2.12; H 1.89; A 2.3; I 1.5; G 1.91
Y1: R 2.97; F 2.48; G 2.97; I 2.64; V 3.19; P 3.47; M 3.16; D 3.57; K 3.32; C 2.33; N 3.18; L 2.87; E 3.53; S 3.52; T 2.92; Q 3.08; W 2.32; H 3.43; A 4.18
P3: N 2.5; R 2.49; G 1.62; Q 2.96; Y 1.8; A 1.79; M 1.88; D 3.37; V 2.13; L 1.62; W 2.87; K 2.01; H 1.79; S 2.36; T 1.84; F 2.3; C 1.54; I 1.92; E 2.66
A8: C 2.07
D4: N 2.56; K 2.38; P 1.99; V 3.17; L 3.1; Q 2.62; R 2.52; W 1.94; H 2.28; F 2.54; I 2.75; G 2.16; M 2.23; Y 3.17; C 1.69; T 3.69; S 2.35; A 1.75; E 1.4
T2: Y 2.45; H 2.11; K 2.56; E 3.6; M 2.35; P 2.17; V 1.95; G 2.4; N 2.18; Q 1.74; R 2.31; A 2.4; L 1.83; D 3.08; I 2.52; C 1.93; F 2.17; W 2.16; S 1.95
P6: E 1.83; Q 2.03; R 1.78; H 1.55; G 2.17; C 2.05; Y 1.47; V 2.12; W 2.06; M 2.2; S 2.55; F 1.82; T 1.78; L 1.32; D 2.01; N 1.8; I 2.09; A 1.56; K 2.12
L5: M 2.12; G 1.32; F 2.64; R 2.49; S 2.05; T 2.02; N 1.92; H 2.2; P 1.81; C 1.84; K 1.91; V 2.89; Y 1.44; A 2.11; W 2.17; E 2.16; I 2.1; D 2.34; Q 2.07

Variants of: B2
Assay: as above
Settings: c terminus: a fixed tail appended

Protein stability index, by site and new letter:
A14: T 1.82; P 2.42; V 2.59; Y 1.74; M 1.99; N 2.26; S 2.35; R 2.04; Q 2.21; W 2.79
P24: E 1.77; G 2.36; K 2.25; N 2.19; S 2.25; L 2.23; W 2.05; Y 1.51; I 2.06; Q 1.91; F 1.49; A 1.46; D 1.96; C 1.98; M 1.96; T 2.17; R 1.56; V 1.57; H 1.58
K18: P 2.35; F 1.9; I 2.15; C 1.37; W 1.9; M 1.94; R 2.88; H 1.78; Y 2.2; V 1.74; L 1.73; S 1.49; N 2.26; E 2.37; T 2.43; D 1.7; A 2.23; Q 1.95; G 2.58
D22: F 1.57; S 2.48; Y 1.74; A 1.67; N 2.31; W 2.14; Q 1.76; V 1.5; L 2.17; C 2.63; I 2.21; G 1.64; H 2.4; K 2.09; M 1.68; T 1.86; E 1.69; P 2.21; R 1.73
E21: L 1.72; S 2.22; K 1.57; C 2.23; A 2.01; G 2.14; H 1.46; R 1.47; I 1.57; M 1.71; V 1.61; T 2.01; F 2.54; W 2.02; P 1.4; N 2; Q 2.11; Y 2.15; D 1.97
M23: I 2.39; L 1.97; D 2.17; G 2.03; N 1.88; Y 2.14; V 1.74; R 1.97; P 2.18; W 1.49; S 2.13; Q 1.68; E 2.06; A 1.94; K 2.26; H 1.93; T 2.63; F 2.23; C 1.95
F19: Q 2.35; I 1.76; L 2.09; N 2.05; A 2.51; R 1.88; M 2.34; W 1.73; Y 1.96; D 2.48; H 2.53; V 1.83; S 2.39; G 2.43; P 2.83; K 1.91; E 2.45; T 2.19; C 1.78
N17: T 2.47; F 1.38; W 1.19; V 1.75; S 2.46; L 1.68; I 1.48; Q 1.85; G 1.58; R 1.89; P 2.12; H 1.72; C 1.87; D 1.9; E 1.91; M 1.59; A 2.83; K 1.97; Y 1.57
G20: F 3.09; H 2.19; K 2.14; T 1.91; L 2.19; C 1.83; Q 2.03; P 1.96; N 1.96; E 2.26; Y 2.58; D 2.28; V 2.13; M 2.35; R 1.56; I 1.88; S 1.82; A 1.99; W 2.41
Q16: V 1.48; L 2.21; I 2.16; C 2.01; A 1.63; D 2; E 2.12; W 2; M 2.28; P 2.3; H 1.77; Y 2.31; R 1.8; T 1.91; F 1.59; G 1.58; N 2.15; S 1.87; K 1.49
H15: K 2.35; G 1.51; F 1.51; L 1.91; R 2.16; I 1.77; A 2.57; N 1.63; T 1.59; P 2.37; Y 1.43; V 2.08; S 1.75; M 2.12; E 2.53; C 1.7; W 2.85; D 2.2; Q 2.08

Source: the supplement of paper PMC10567573
